Like-named read-outs stand apart in the source and are kept apart here. Numbered stars: 1 amine (or outer) side, 2 acyl side, 3 side chain; on linkers, the order of the positions; unused ones are H or OH. Bridge positions count the residues as written; N and C are the ends. Square brackets hold non-standard residues; d marks the D form. Side chains are listed from the residue outwards. Ends that are not written are not given here. Peptide text beside a SMILES is read from it. * marks the point of attachment. PEG 40 kDa = PEG of 40 kDa covalently attached to Cys; γGlu = O=C(O)[C@H](CCC(=O)[*:2])N[*:1]; C16 acyl = 16 carbon fatty acyl group; PEG40kDa = 40 kDa polyethylene glycol; Palmitoyl = CCCCCCCCCCCCCCCC(=O)*; Myristoyl = CCCCCCCCCCCCCC(=O)*; Ac‑Cys = acetylated cysteine; Aib = CC(C)(N)C(=O)O
Assays:
glucagon receptor [1] = target: T1, glucagon receptor (Homo sapiens, UniProt P47871); experiment: glucagon receptor binding; design: expressed in transfected cells; host or cells: HEK293; details: Table E; read-out: Receptor Binding IC50
GIP receptor = target: T2, GIP receptor (Homo sapiens, UniProt P48546); experiment: cAMP induction at the GIP receptor (agonist activity), luciferase reporter assay in HEK293 cells; format: cell-based; details: for GIPR relative activity: Table 5, relative to standard
T2 construct: expressed in transfected cells; host or cells: HEK293
T2 sequence (P48546 22-466): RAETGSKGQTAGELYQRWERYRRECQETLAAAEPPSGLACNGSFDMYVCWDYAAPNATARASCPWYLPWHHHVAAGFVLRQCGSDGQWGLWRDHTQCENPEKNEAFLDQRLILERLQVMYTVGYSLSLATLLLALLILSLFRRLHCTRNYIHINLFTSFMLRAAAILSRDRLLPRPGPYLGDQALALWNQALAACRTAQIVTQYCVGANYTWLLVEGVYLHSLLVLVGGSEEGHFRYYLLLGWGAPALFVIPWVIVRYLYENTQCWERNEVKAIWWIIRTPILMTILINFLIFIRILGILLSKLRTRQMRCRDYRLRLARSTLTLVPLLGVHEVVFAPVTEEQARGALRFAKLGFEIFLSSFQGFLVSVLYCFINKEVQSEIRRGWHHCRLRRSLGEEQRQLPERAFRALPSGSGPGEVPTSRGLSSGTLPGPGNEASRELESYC
Text: (§1) HEK293 cells co-transfected with the receptor and luciferase gene linked to a cAMP responsive element were employed for the bioassay.
(§2) All EC50s and IC50s are reported in the following examples in nM, unless indicated otherwise.

glucagon receptor [2] = target: T1, glucagon receptor; experiment: cAMP induction at the glucagon receptor (agonist activity), luciferase reporter assay in HEK293 cells; format: cell-based; design: expressed in transfected cells; host or cells: HEK293; details: for EC50: read-out: GR EC50; for GR relative activity: relative to standard
Text: as §1, §2

GLP-1 receptor = target: T3, GLP-1 receptor (Homo sapiens, UniProt P43220); experiment: cAMP induction at the GLP-1 receptor (agonist activity), firefly luciferase reporter assay in HEK293 cells; format: cell-based; details: for GLP-1R relative activity: Table 5, relative to standard
T3 construct: expressed in transfected cells; host or cells: HEK293
Text: as §1, §2

[3] = Table 7, relative to the native ligand of the receptor
[4] = Table 6, relative to the native ligand at the receptor

T3 sequence (P43220 24-463): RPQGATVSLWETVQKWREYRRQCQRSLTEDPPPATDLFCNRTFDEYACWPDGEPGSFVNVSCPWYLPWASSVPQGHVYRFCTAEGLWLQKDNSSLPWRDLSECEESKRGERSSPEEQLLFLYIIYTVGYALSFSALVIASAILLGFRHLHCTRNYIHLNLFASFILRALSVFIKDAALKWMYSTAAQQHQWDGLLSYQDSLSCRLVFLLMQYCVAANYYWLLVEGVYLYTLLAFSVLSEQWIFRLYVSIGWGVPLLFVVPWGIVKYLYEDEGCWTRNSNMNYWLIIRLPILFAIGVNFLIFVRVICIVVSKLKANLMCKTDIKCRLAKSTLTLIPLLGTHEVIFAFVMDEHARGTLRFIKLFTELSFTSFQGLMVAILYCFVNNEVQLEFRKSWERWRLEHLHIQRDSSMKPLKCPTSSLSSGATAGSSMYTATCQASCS
T1 sequence (P47871 26-477): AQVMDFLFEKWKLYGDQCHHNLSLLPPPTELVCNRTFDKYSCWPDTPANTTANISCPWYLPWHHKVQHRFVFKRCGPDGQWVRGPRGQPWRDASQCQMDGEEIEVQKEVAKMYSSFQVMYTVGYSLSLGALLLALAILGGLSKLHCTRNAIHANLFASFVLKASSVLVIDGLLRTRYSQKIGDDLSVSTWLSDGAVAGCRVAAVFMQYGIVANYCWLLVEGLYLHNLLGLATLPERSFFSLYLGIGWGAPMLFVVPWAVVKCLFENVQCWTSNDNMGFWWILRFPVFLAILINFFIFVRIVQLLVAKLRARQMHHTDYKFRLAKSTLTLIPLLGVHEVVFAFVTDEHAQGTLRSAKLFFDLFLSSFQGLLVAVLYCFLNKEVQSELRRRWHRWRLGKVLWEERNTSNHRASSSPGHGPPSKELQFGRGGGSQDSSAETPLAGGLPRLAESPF

| Compound | GIPR relative activity (GIP receptor) | EC50 (glucagon receptor [2]; Table 5) | GR relative activity (glucagon receptor [2]; Table 5) | GLP-1R relative activity (GLP-1 receptor) | also measured |
| --- | --- | --- | --- | --- | --- |
| CC(C)C[C@H](NC(=O)[C@H](Cc1ccc(O)cc1)NC(=O)[C@H](CCCCN)NC(=O)[C@H](CO)NC(=O)[C@H](Cc1ccc(O)cc1)NC(=O)[C@H](CCS(=O)(=O)O)NC(=O)[C@H](CO)NC(=O)[C@@H](NC(=O)[C@H](Cc1ccccc1)NC(=O)[C@@H](NC(=O)CNC(=O)[C@H](CCC(N)=O)NC(=O)[C@@H](N)CO)[C@@H](C)O)[C@@H](C)O)C(=O)N[C@@H](CC(=O)O)C(=O)N[C@@H](CO)C(=O)N[C@@H](CCCNC(=N)N)C(=O)N[C@@H](CCCNC(=N)N)C(=O)N[C@@H](C)C(=O)N[C@@H](CCC(N)=O)C(=O)N[C@@H](CC(=O)O)C(=O)N[C@@H](Cc1ccccc1)C(=O)N[C@H](C(=O)N[C@@H](CCC(N)=O)C(=O)N[C@@H](Cc1ccccc1)C(=O)N[C@@H](CC(C)C)C(=O)N[C@@H](CC(C)C)C(=O)N[C@@H](CC(N)=O)C(=O)N[C@H](C(N)=O)[C@@H](C)O)C(C)C [[desIIis^1, hCys^9(SO3—), Phe^25, Leu^27]Glucagon-NH2] (HELM PEPTIDE1{S.Q.G.T.F.T.S.[O=C([C@H](CCS(=O)(=O)O)N[*:1])[*:2]].Y.S.K.Y.L.D.S.R.R.A.Q.D.F.V.Q.F.L.L.N.T.[am]}$$$$V2.0; N-terminus assumed) | – | – | – | – | IC50 (glucagon receptor [1]): 13.9 ± 0.37 nM |
| CC[C@H](C)[C@H](NC(=O)[C@H](CO)NC(=O)[C@H](Cc1ccc(O)cc1)NC(=O)[C@H](CC(=O)O)NC(=O)[C@H](CO)NC(=O)[C@@H](NC(=O)[C@H](Cc1ccccc1)NC(=O)[C@@H](NC(=O)CNC(=O)[C@H](CCC(=O)O)NC(=O)C(C)(C)NC(=O)[C@@H](N)Cc1ccc(O)cc1)[C@@H](C)O)[C@@H](C)O)C(=O)N[C@@H](Cc1ccc(O)cc1)C(=O)N[C@@H](CC(C)C)C(=O)N[C@@H](CC(=O)O)C(=O)N[C@@H](CCCCN)C(=O)N[C@@H](CCC(N)=O)C(=O)N[C@@H](C)C(=O)N[C@@H](C)C(=O)NC(C)(C)C(=O)N[C@@H](CCC(=O)O)C(=O)N[C@@H](Cc1ccccc1)C(=O)N[C@H](C(=O)N[C@@H](CC(N)=O)C(=O)N[C@@H](Cc1c[nH]c2ccccc12)C(=O)N[C@@H](CC(C)C)C(=O)N[C@@H](CC(C)C)C(=O)N[C@@H](C)C(=O)NCC(=O)NCC(=O)N1CCC[C@H]1C(=O)N[C@@H](CO)C(=O)N[C@@H](CO)C(=O)NCC(=O)N[C@@H](C)C(=O)N1CCC[C@H]1C(=O)N1CCC[C@H]1C(=O)N1CCC[C@H]1C(=O)N[C@@H](CO)C(=O)N[C@H](CCCCN)C(N)=O)C(C)C [mt-398] | – | – | – | – | EC50 (GIP receptor; Table 4, read-out: GIPR EC50): 3.1 pM; EC50 (glucagon receptor [2]; Table 4): 3.74 nM; EC50 (GLP-1 receptor; Table 4, read-out: GLP-1R EC50): 7.8 pM |
| Chimera2-CEXK40(C16) (H[Aib]QGTFTSDYSKYLDEQAAKEFIAWLMNGGPSSGAPPPSK(Palmitoyl)-NH2) [MT-364] | – | – | – | – | % Relative Activity at GIPR (GIP receptor; [3]): 16%; % Relative Activity at GR (glucagon receptor [2]; [3]): 350%; % Relative Activity GLP-1R (GLP-1 receptor; [3]): 355% |
| E3C24-PEG-K10-C14 (Y[Aib]EGTFTSDK(Myristoyl)SIYLDKQAA[Aib]EFVC(PEG 40 kDa)WLLAGGPSSGAPPPS-NH2) [MT-341] | – | – | – | – | % Relative Activity at GIPR (GIP receptor; Table 9): 27.4%; % Relative Activity at GR (glucagon receptor [2]; Table 9): 0.01%; % Relative Activity GLP-1R (GLP-1 receptor; Table 9): 14.6% |
| E3C24-PEG-K40-C14 (Y[Aib]EGTFTSDYSIYLDKQAA[Aib]EFVC(PEG 40 kDa)WLLAGGPSSGAPPPSK(Myristoyl)-NH2) [MT-353] | – | – | – | – | % Relative Activity at GIPR (GIP receptor; Table 9): 102.9%; % Relative Activity at GR (glucagon receptor [2]; Table 9): 0.17%; % Relative Activity GLP-1R (GLP-1 receptor; Table 9): 128.6% |
| E3K16AIB2,20K10(C16) (Y[Aib]EGTFTSDK(C16 acyl)SIYLDKQAA[Aib]EFVNWLLAGGPSSGAPPPS-NH2) [MT-270] | – | – | – | – | % Relative Activity at GIPR (GIP receptor; [4]): 163%; % Relative Activity at GIPR (GIP receptor; Table 9): 163.3%; % Relative Activity at GR (glucagon receptor [2]; [4]): 0.1%; % Relative Activity at GR (glucagon receptor [2]; Table 9): 0.06%; % Relative Activity GLP-1R (GLP-1 receptor; [4]): 212%; % Relative Activity GLP-1R (GLP-1 receptor; Table 9): 211.8% |
| K40-C16 (Y[Aib]QGTFTSDYSIYLDKQAA[Aib]EFVNWLLAGGPSSGAPPPSK(C16 acyl)-NH2) [MT-278] | – | – | – | – | % Relative Activity at GIPR (GIP receptor; Table 9): 846.4%; % Relative Activity at GR (glucagon receptor [2]; Table 9): 588.4%; % Relative Activity GLP-1R (GLP-1 receptor; Table 9): 459.5% |
| Q3K16AIB20K10(rErE-C16) (Y[Aib]QGTFTSDK([γGlu-γGlu-C16 acyl])SIYLDKQAA[Aib]EFVNWLLAGGPSSGAPPPS-NH2) [MT-384] | – | – | – | – | % Relative Activity at GIPR (GIP receptor; [3]): 808%; % Relative Activity at GR (glucagon receptor [2]; [3]): 228%; % Relative Activity GLP-1R (GLP-1 receptor; [3]): 349% |
| Y1Aib2I7I12K16Q17A18Aib20E21N24-LAG27-29-CEX-K (YXQGTFISDYSIYLDKQAAXEFVNWLLAGGPSSGAPPPSK; HELM PEPTIDE1{Y.[Aib].Q.G.T.F.I.S.D.Y.S.I.Y.L.D.K.Q.A.A.[Aib].E.F.V.N.W.L.L.A.G.G.P.S.S.G.A.P.P.P.S.K.[am]}$$$$V2.0; N-terminus assumed; SMILES CC[C@H](C)[C@H](NC(=O)[C@H](CO)NC(=O)[C@H](Cc1ccc(O)cc1)NC(=O)[C@H](CC(=O)O)NC(=O)[C@H](CO)NC(=O)[C@@H](NC(=O)[C@H](Cc1ccccc1)NC(=O)[C@@H](NC(=O)CNC(=O)[C@H](CCC(N)=O)NC(=O)C(C)(C)NC(=O)[C@@H](N)Cc1ccc(O)cc1)[C@@H](C)O)[C@@H](C)CC)C(=O)N[C@@H](Cc1ccc(O)cc1)C(=O)N[C@@H](CC(C)C)C(=O)N[C@@H](CC(=O)O)C(=O)N[C@@H](CCCCN)C(=O)N[C@@H](CCC(N)=O)C(=O)N[C@@H](C)C(=O)N[C@@H](C)C(=O)NC(C)(C)C(=O)N[C@@H](CCC(=O)O)C(=O)N[C@@H](Cc1ccccc1)C(=O)N[C@H](C(=O)N[C@@H](CC(N)=O)C(=O)N[C@@H](Cc1c[nH]c2ccccc12)C(=O)N[C@@H](CC(C)C)C(=O)N[C@@H](CC(C)C)C(=O)N[C@@H](C)C(=O)NCC(=O)NCC(=O)N1CCC[C@H]1C(=O)N[C@@H](CO)C(=O)N[C@@H](CO)C(=O)NCC(=O)N[C@@H](C)C(=O)N1CCC[C@H]1C(=O)N1CCC[C@H]1C(=O)N1CCC[C@H]1C(=O)N[C@@H](CO)C(=O)N[C@@H](CCCCN)C(N)=O)C(C)C) [MT-357] | – | – | – | – | % Relative Activity at GIPR (GIP receptor; Table 8): 198%; % Relative Activity at GR (glucagon receptor [2]; Table 8): 170%; % Relative Activity GLP-1R (GLP-1 receptor; Table 8): 0.81% |
| mt-217: lactam 16-20 glucagon analog, Lys24 carrying Ala spacer, acetylated Cys and 40 kDa PEG; SEQ ID NO: 19 (Y[Aib]QGTFTSDYSIYLDEQAAKEFVK([Ala-Ac‑Cys-PEG40kDa])FLLAGGPSSGAPPPS-NH2; lactam 16-20) | 0.20% | 13.9 nM | 0.82% | 11.26% | – |
| mt-218: as mt-217 with Glu as the amino acid spacer; SEQ ID NO: 20 (Y[Aib]QGTFTSDYSIYLDEQAAKEFVK([Glu-Ac‑Cys-PEG40kDa])FLLAGGPSSGAPPPS-NH2; lactam 16-20) | 0.13% | 16.3 nM | 0.70% | 7.40% | – |
| mt-219: as mt-217 with Arg as the amino acid spacer; SEQ ID NO: 21 (Y[Aib]QGTFTSDYSIYLDEQAAKEFVK([Arg-Ac‑Cys-PEG40kDa])FLLAGGPSSGAPPPS-NH2; lactam 16-20) | .31% | 17.6 nM | 0.65% | 16.56% | – |
| mt-220: as mt-217 with Phe as the amino acid spacer; SEQ ID NO: 22 (Y[Aib]QGTFTSDYSIYLDEQAAKEFVK([Phe-Ac‑Cys-PEG40kDa])FLLAGGPSSGAPPPS-NH2; lactam 16-20) | 0.19% | 9.67 nM | 1.18% | 13.89% | – |
| mt-225: as mt-217 but modified Lys at position 40 and Asn at position 24; SEQ ID NO: 359 (Y[Aib]QGTFTSDYSIYLDEQAAKEFVNWLLAGGPSSGAPPPSK([Ala-Ac‑Cys-PEG40kDa])-NH2; lactam 16-20) | 0.90% | 2.71 nM | 1.99% | 29.59% | – |
| mt-226: as mt-218 but modified Lys at position 40 and Asn at position 24; SEQ ID NO: 23 (Y[Aib]QGTFTSDYSIYLDEQAAKEFVNWLLAGGPSSGAPPPSK([Glu-Ac‑Cys-PEG40kDa])-NH2; lactam 16-20) | 1.16% | 3.46 nM | 1.56% | 29.90% | – |
| mt-227: as mt-219 but modified Lys at position 40 and Asn at position 24; SEQ ID NO: 360 (Y[Aib]QGTFTSDYSIYLDEQAAKEFVNWLLAGGPSSGAPPPSK([Arg-Ac‑Cys-PEG40kDa])-NH2; lactam 16-20) | 1.29% | 4.24 nM | 1.27% | 36.25% | – |
| mt-228: as mt-220 but modified Lys at position 40 and Asn at position 24; SEQ ID NO: 24 (Y[Aib]QGTFTSDYSIYLDEQAAKEFVNWLLAGGPSSGAPPPSK([Phe-Ac‑Cys-PEG40kDa])-NH2; lactam 16-20) | 0.75% | 5.36 nM | 1.01% | 19.86% | – |

Reference: patent US20140107021A1 (priority 2010, published 2014)
